Positions count from the first letter of the chain named. In names and notes the source's numbering stands. Several values for one entry are separate records, joined by “and”; a condition that tells them apart may be missing. Equal entries are not always repeated.
T1: Human IL-23 no linker (human, UniProt P29460 23-328)
T1 construct: also called recombinant IL-23 without linker
T1 sequence 1: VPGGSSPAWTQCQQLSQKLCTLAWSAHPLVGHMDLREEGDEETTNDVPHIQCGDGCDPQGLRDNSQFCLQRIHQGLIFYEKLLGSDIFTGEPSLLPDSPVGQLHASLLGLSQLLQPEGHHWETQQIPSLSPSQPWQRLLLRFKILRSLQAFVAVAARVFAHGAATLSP
T1 sequence 2: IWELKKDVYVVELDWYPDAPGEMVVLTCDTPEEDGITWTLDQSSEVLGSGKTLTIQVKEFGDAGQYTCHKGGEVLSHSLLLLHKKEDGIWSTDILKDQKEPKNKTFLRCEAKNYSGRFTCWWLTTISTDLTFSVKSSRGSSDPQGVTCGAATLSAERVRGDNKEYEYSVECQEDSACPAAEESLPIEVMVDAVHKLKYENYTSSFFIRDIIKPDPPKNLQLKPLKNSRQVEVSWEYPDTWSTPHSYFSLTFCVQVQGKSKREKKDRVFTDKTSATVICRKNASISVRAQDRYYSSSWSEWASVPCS

T2: natural human IL-23 from activated THP-1 cells (human, UniProt P29460 23-328)
T2 sequence 1: T1 sequence 1
T2 sequence 2: T1 sequence 2

T3: recombinant human IL-23 (human, UniProt P29460 23-328)
T3 sequence 1: T1 sequence 1
T3 sequence 2: T1 sequence 2

T4: human IL-12 (human, UniProt P29459 23-219; P29460 23-328)
T4 sequence (looked up) 1: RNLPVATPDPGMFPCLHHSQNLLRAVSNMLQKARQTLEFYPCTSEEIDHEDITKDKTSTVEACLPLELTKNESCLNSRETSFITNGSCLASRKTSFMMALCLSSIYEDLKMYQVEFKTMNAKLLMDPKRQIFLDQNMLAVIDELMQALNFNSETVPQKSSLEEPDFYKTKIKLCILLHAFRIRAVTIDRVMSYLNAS
T4 sequence (looked up) 2: T1 sequence 2

B1: Antibody A (antibody, human IgG1, kappa, L234A L235A, V domains shown)
VH: QVQLVQSGAEVKKPGSSVKVSCKASGYTFTDQTIHWMRQAPGQGLEWIGYIYPRDDSPKYNENFKGKVTITADKSTSTAYMELSSLRSEDTAVYYCAIPDRSGYAWFIYWGQGTLVTVSS
VL: DIQMTQSPSSLSASVGDRVTITCKASRDVAIAVAWYQQKPGKVPKLLIYWASTRHTGVPSRFSGSGSRTDFTLTISSLQPEDVADYFCHQYSSYPFTFGSGTKLEIKR
notes: Humanized 6B8, human IgG1-KO (L234A/L235A) / kappa; also called 6B8-IgG1KO-2 with IgK-66; 6B8CVH-02 / 6B8CVK-66
B2: Antibody D (antibody, human IgG1, kappa, L234A L235A, V domains shown)
VH: B1 VH with Y27F, M37V, I48M, I70L
VL: B1 VL with I48L, Y49F, S60D, R68G, V83L, F87Y, S100Q
notes: Humanized 6B8, human IgG1-KO (L234A/L235A) / kappa; also called 6B8-IgG1KO-5 with IgK-65; 6B8CVH-05 / 6B8CVK-65
B3: Antibody B (antibody, human IgG1, kappa, L234A L235A, V domains shown)
VH: B1 VH with Y27F, M37V, I48M, I70L
VL: B1 VL
notes: Humanized 6B8, human IgG1-KO (L234A/L235A) / kappa; also called 6B8-IgG1KO-5 with IgK-66; 6B8CVH-05 / 6B8CVK-66
B4: Antibody C (antibody, human IgG1, kappa, L234A L235A, V domains shown)
VH: B1 VH
VL: B1 VL with I48L, Y49F, S60D, R68G, V83L, F87Y, S100Q
notes: Humanized 6B8, human IgG1-KO (L234A/L235A) / kappa; also called 6B8-IgG1KO-2 with IgK-65; 6B8CVH-02 / 6B8CVK-65
B5: antibody C1273 (disclosed in WO 2007/005955) (antibody, V domains shown)
VH: DVNLVESGGGLVKPGGSLKLSCAASGFTFSSYTMSWVRQTPEKRLEWVATISSGGTYTYYPDSVKGRFTISRDNAKNTLYLQMSSLKSEDTAMFYCTRDNHAYDRGPFFDYWGQGATLTVSS
VL: DIVMSQSPSSLVVSVGEKVTMSCKSSQNLFYRSNQKNHLAWYQQKPGQSPTLLIYWTSTRESGVPDRFTGSGSGTDFTLTISRVKAEDLAVYYCQQYYSYPPTFGGGTKLEIK
B6: Mouse antibody 6B8 (antibody, V domains shown)
VH: QVQLQQSDAELVKPGTSVKTSCKISGNTFTDQTIHWMKQRPEQGLEWIGYIYPRDDSPKYNENFKGKATLTADKSSSTAYMQLNSLTSEDSAVYFCAIPDRSGYAWFIYWGQGTLVTVSS
VL: DIVMTQSHKFLSTSVGDRVTITCKASRDVAIAVAWYQQKPGQSPKLLLFWASTRHTGVPDRFTGSGSRTDFTLTISNVQSEDLADYFCHQYSSYPFTFGSGTKLEIK
notes: Mouse monoclonal antibody from hybridoma; also called Mouse 6B8; 6B8Vk
B7: Chimeric 6B8 (antibody, V domains shown)
VH: B6 VH
VL: B6 VL
B8: 34D9 (antibody, V domains shown)
VH: EVQLQQSGPELVKPGASVKIPCKASGYTFTDYNMDWVKKSHGKSLEWIGDINPHNGGTIYNQKFKGKATLTVDKSSSTAHMELRSLTSEDTAVYYCARNYYGSSYGWYFDVWGTGTTVTVSS
VL: DIMMTQSHKFMSTSVGDRVSITCKASQDVGNAVVWYQQKPGQSPKLLIYWASTRHIGVPDRFTGSGSGTDFTLTITNVQSEDLADYFCQQYSSYLTFGAGTKLELK
notes: Mouse monoclonal antibody from hybridoma; also called 34D9Vk; 34D9VH7
B9: Chimeric 18E5 (antibody, V domains shown)
VH: EVQLQQSGPELVKPGAAVKMSCKASGYTFTRYLIHWVKQKPGQGLEWIGYINPYNDGTKYNEKFKGKATLTSDKSSSTAYMELSSLTSEDSAVYYCTSNWDLDYWGQGTTLTVSS
VL: DIVMTQSPATLSVTPGDRVSLSCRASQSISDYLYWYQQKSHESPRLLIKFASQSISGIPSRFTGSGSGSDFTLSIDSVEPDDVGVFFCQNGHSFPFTFGGGTKLEIK

target: T1, Human IL-23 no linker; test: SPR, ProteOn XPR36, global 1:1 fit
Procedure: B) Affinities were measured for humanized antibodies derived from mouse antibody 6B8.

Binder	Kd	koff	kon
B1	< 0.001 nM	–	–
B2	0.135 nM	4.93e-05 s⁻¹	366000 M⁻¹ s⁻¹
B3	< 0.001 nM	< 1e-06 s⁻¹	517000 M⁻¹ s⁻¹
B4	0.0363 nM	1.65e-05 s⁻¹	454000 M⁻¹ s⁻¹
B5	0.0158 nM	5.75e-06 s⁻¹	360000 M⁻¹ s⁻¹
B6	0.0245 nM	1.38e-05 s⁻¹	557000 M⁻¹ s⁻¹

target: T2, natural human IL-23 from activated …; test: cell-based or functional assay

Binder	IC50, IL-23 stimulated IL-17 production from mouse splenocytes
B1	1 pM
B2	133 pM and 125 pM
B3	9 pM and 8 pM
B4	16 pM and 32 pM
B7	5 pM and 2 pM and 6 pM and 3 pM
B8	456 pM

target: T3, recombinant human IL-23; test: cell-based or functional assay

Binder	IC50, IL-23 stimulated IL-17 production from mouse splenocytes
B1	5 pM and 15 pM
B2	236 pM and 225 pM and 614 pM and 458 pM
B9	31 pM
B7	26 pM and 37 pM and 57 pM
B6	13 pM
B8	510 pM

target: T5, cynomologous IL-23 (cynomolgus monkey); test: SPR, ProteOn XPR36, global 1:1 fit
T5 construct: also called cynomolgus IL-23; cynomolgus monkey IL-23

Binder	Kd	koff	kon
B1	< 1 pM	–	–
B2	15.9 pM	3.29e-05 s⁻¹	2.07e+06 M⁻¹ s⁻¹
B3	< 1 pM	< 1e-06 s⁻¹	2.99e+06 M⁻¹ s⁻¹
B4	2.9 pM	9.36e-06 s⁻¹	3.23e+06 M⁻¹ s⁻¹

target: T4, human IL-12; test: cell-based or functional assay

Binder	Average pg/ml IFN-γ +/- Standard Deviation, human PHA-derived T cell blasts with 1 ng/ml IL-12 (no antibody: 532 +/- 51; unstimulated: 87 +/- 7)
B1	497 pg/ml IFN-γ
B2	539 pg/ml IFN-γ
B3	537 pg/ml IFN-γ
B4	495 pg/ml IFN-γ
B9	511 pg/ml IFN-γ
B7	523 pg/ml IFN-γ

target: T3, recombinant human IL-23; test: BLI, Fortebio Octet; hybridoma-derived antibody
Procedure: Kinetics and binding affinities were measured using the Fortebio OCTET® (Fortebio, Menlo Park, Calif.) using material generated from hybridoma following single column purification.

Binder	Kd	koff	kon
B6	< 0.001 nM	< 1e-06 s⁻¹	–
B8	0.544 nM	1.87e-06 s⁻¹	3440 M⁻¹ s⁻¹

target: T3, recombinant human IL-23; test: cell-based or functional assay; remark: another data set of the same source

Binder	IC50, IL-23 induced STAT3 phosphorylation in human DB cells (phospho-STAT3 ELISA)
B2	158 pM
B3	73 pM and 84 pM
B4	132 pM and 80 pM
